Broadly, the stoichiometry N is a count of units in the complex or per binding partner.

The results in this text go back to publication doi:10.1101/2022.03.11.483953.

The test addresses full-length H. sapiens ROCK2 (H. sapiens), O75116. Briefly: rotary shadowing electron microscopy. The conditions noted are these: remark: other sources report otherwise.

B1: full-length H. sapiens ROCK2, O75116 1-1388 (enzyme)
chain: MSRPPPTGKMPGAPETAPGDGAGASRQRKLEALIRDPRSPINVESLLDGLNSLVLDLDFPALRKNKNIDNFLNRYEKIVKKIRGLQMKAEDYDVVKVIGRGAFGEVQLVRHKASQKVYAMKLLSKFEMIKRSDSAFFWEERDIMAFANSPWVVQLFYAFQDDRYLYMVMEYMPGGDLVNLMSNYDVPEKWAKFYTAEVVLALDAIHSMGLIHRDVKPDNMLLDKHGHLKLADFGTCMKMDETGMVHCDTAVGTPDYISPEVLKSQGGDGFYGRECDWWSVGVFLYEMLVGDTPFYADSLVGTYSKIMDHKNSLCFPEDAEISKHAKNLICAFLTDREVRLGRNGVEEIRQHPFFKNDQWHWDNIRETAAPVVPELSSDIDSSNFDDIEDDKGDVETFPIPKAFVGNQLPFIGFTYYRENLLLSDSPSCRETDSIQSRKNEESQEIQKKLYTLEEHLSNEMQAKEELEQKCKSVNTRLEKTAKELEEEITLRKSVESALRQLEREKALLQHKNAEYQRKADHEADKKRNLENDVNSLKDQLEDLKKRNQNSQISTEKVNQLQRQLDETNALLRTESDTAARLRKTQAESSKQIQQLESNNRDLQDKNCLLETAKLKLEKEFINLQSALESERRDRTHGSEIINDLQGRICGLEEDLKNGKILLAKVELEKRQLQERFTDLEKEKSNMEIDMTYQLKVIQQSLEQEEAEHKATKARLADKNKIYESIEEAKSEAMKEMEKKLLEERTLKQKVENLLLEAEKRCSLLDCDLKQSQQKINELLKQKDVLNEDVRNLTLKIEQETQKRCLTQNDLKMQTQQVNTLKMSEKQLKQENNHLMEMKMNLEKQNAELRKERQDADGQMKELQDQLEAEQYFSTLYKTQVRELKEECEEKTKLGKELQQKKQELQDERDSLAAQLEITLTKADSEQLARSIAEEQYSDLEKEKIMKELEIKEMMARHKQELTEKDATIASLEETNRTLTSDVANLANEKEELNNKLKDVQEQLSRLKDEEISAAAIKAQFEKQLLTERTLKTQAVNKLAEIMNRKEPVKRGNDTDVRRKEKENRKLHMELKSEREKLTQQMIKYQKELNEMQAQIAEESQIRIELQMTLDSKDSDIEQLRSQLQALHIGLDSSSIGSGPGDAEADDGFPESRLEGWLSLPVRNNTKKFGWVKKYVIVSSKKILFYDSEQDKEQSNPYMVLDIDKLFHVRPVTQTDVYRADAKEIPRIFQILYANEGESKKEQEFPVEPVGEKSNYICHKGHEFIPTLYHFPTNCEACMKPLWHMFKPPPALECRRCHIKCHKDHMDKKEEIIAPCKVYYDISTAKNLLLLANSTEEQQKWVSRLVKKIPKKPPAPDPFARSSPRTSMKIQQNQSIRRPSRQLAPNKPS
Regarding B1, the stoichiometry N came to 2.
